The text below walks through data of IntAct's records for PubMed 15197186.

The target of test [1] is mob1a_human MOB1A (UniProt Q9H8S9).
Test [2] shares this target. The source holds these as a separate data set.

Chain of mob1a_human MOB1A (Q9H8S9 whole entry): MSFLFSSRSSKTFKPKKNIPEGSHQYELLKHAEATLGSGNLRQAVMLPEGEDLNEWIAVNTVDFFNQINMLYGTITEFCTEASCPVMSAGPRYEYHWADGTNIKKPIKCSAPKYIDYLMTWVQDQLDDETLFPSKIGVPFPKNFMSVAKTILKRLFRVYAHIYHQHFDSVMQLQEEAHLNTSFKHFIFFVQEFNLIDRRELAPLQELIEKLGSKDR
Chain of Serine/threonine-protein kinase 38 (Homo sapiens), Q15208 Y31A (Q15208 whole entry Y31A): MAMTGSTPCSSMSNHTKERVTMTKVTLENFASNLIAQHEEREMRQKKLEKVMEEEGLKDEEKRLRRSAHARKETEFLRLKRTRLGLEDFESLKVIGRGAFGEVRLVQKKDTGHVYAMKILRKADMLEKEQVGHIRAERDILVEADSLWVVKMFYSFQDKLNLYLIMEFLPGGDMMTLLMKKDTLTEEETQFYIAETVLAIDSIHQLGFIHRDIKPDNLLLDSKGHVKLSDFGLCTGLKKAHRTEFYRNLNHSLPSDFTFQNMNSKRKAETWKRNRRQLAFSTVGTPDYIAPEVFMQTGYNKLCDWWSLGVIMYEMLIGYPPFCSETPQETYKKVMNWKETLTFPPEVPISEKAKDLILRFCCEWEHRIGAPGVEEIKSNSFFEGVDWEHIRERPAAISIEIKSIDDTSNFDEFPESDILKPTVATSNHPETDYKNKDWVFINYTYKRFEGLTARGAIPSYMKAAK
Chain of Serine/threonine-protein kinase 38-like (Homo sapiens), Q9Y2H1 Y32A (Q9Y2H1 whole entry Y32A): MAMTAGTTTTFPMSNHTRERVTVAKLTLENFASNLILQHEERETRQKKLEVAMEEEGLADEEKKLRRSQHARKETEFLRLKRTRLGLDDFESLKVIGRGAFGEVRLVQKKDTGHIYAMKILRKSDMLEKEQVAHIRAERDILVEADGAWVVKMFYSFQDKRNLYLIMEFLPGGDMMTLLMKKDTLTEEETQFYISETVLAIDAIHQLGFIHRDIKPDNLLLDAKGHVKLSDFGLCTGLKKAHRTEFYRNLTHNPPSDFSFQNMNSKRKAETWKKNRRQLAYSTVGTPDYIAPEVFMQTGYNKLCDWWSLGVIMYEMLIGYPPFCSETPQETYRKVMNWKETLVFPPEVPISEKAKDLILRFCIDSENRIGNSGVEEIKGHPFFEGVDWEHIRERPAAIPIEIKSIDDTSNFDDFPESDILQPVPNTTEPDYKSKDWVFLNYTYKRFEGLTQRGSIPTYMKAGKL
Chain of Serine/threonine-protein kinase 38 (Homo sapiens), Q15208 R44A (Q15208 whole entry R44A): as the sequence (Q15208 whole entry Y31A) above, with A31Y, R44A counted along it
Chain of Serine/threonine-protein kinase 38 (Homo sapiens), Q15208 K24A (Q15208 whole entry K24A): as the sequence (Q15208 whole entry Y31A) above, with K24A, A31Y counted along it
Chain of Serine/threonine-protein kinase 38 (Homo sapiens), Q15208 R41A (Q15208 whole entry R41A): as the sequence (Q15208 whole entry Y31A) above, with A31Y, R41A counted along it
Chain of Serine/threonine-protein kinase 38 (Homo sapiens), Q15208 R78A (Q15208 whole entry R78A): as the sequence (Q15208 whole entry Y31A) above, with A31Y, R78A counted along it
Chain of Serine/threonine-protein kinase 38 (Homo sapiens), Q15208 L79A (Q15208 whole entry L79A): as the sequence (Q15208 whole entry Y31A) above, with A31Y, L79A counted along it
Chain of Serine/threonine-protein kinase 38 (Homo sapiens), Q15208 T74A (Q15208 whole entry T74A): as the sequence (Q15208 whole entry Y31A) above, with A31Y, T74A counted along it

As to “Serine/threonine-protein kinase 38 (Homo sapiens), Q15208 L79A”, the “effect of a mutation on the interaction” value in test [1] was “decreasing interaction”.

Take “Serine/threonine-protein kinase 38 (Homo sapiens), Q15208 R41A”: in test [1], the “effect of a mutation on the interaction” value is on record as “disrupting interaction”. On the same count and under the same terms, the value for “Serine/threonine-protein kinase 38 (Homo sapiens), Q15208 R78A” was “disrupting interaction”; that for “Serine/threonine-protein kinase 38 (Homo sapiens), Q15208 R44A” was “decreasing interaction”. Same read-out and setting: as for “Serine/threonine-protein kinase 38 (Homo sapiens), Q15208 Y31A”, the entry is “disrupting interaction”; as for “Serine/threonine-protein kinase 38 (Homo sapiens), Q15208 T74A”, “disrupting interaction”. “Serine/threonine-protein kinase 38-like (Homo sapiens), Q9Y2H1 Y32A”: the “effect of a mutation on the interaction” value in test [2] is given as “disrupting interaction”.

Turning to “Serine/threonine-protein kinase 38 (Homo sapiens), Q15208 K24A”, the “effect of a mutation on the interaction” value in test [1] was “decreasing interaction”.
